Results taken from publication PMC12675262 (Journal of Experimental Botany, 2025).

Target: the molecule itself
Experiment: SEC

B1: Synechocystis sp. PCC 6803 fructose-1,6-bisphosphatase (FBPase; slr0952) (enzyme, UniProt P74324 1-347, looked up)
chain: MTVSEIHIPNSLLDRDCTTLSRHVLQQLNSFGADAQDLSAIMNRIALAGKLIARRLSRAGLMADVLGFTGETNVQGESVKKMDVFANDVFISVFKQSGLVCRLASEEMEKPYYIPENCPIGRYTLLYDPIDGSSNVDINLNVGSIFAIRQQEGDDLDGSASDLLANGDKQIAAGYILYGPSTILVYSLGSGVHSFILDPSLGEFILAQENIRIPNHGPIYSTNEGNFWQWDEALRDYTRYVHRHEGYTARYSGALVGDIHRILMQGGVFLYPGTEKNPDGKLRLLYETAPLAFLVEQAGGRASDGQKRLLDLIPSKLHQRTPAIIGSAEDVKLVESFISDHKQRQGN
  stoichiometry N: 4
